Ends that are not written are not given here. * marks the point of attachment. Biotin = O=C1N[C@H]2[C@H](CS[C@H]2CCCCC(=O)*)N1
Tests used:
[1] = target: T1, GST-SYN1a PDZ domain fusion protein (alpha1-syntrophin AA96-189; PDZ domain 1 of 1) (UniProt P08515 1-218 = GST); experiment: A/G assays
T1 construct: also called SYN 1 alpha; SYNTR 1 alpha

[2] = target: GST-NOS1 PDZ domain fusion protein (human neuronal nitric oxide synthase; PDZ domain 1 of 1) (human, UniProt P08515 1-218 = GST); experiment: A/G assays
[3] = target: GST-MPP1 PDZ domain fusion protein (55 Kd erythrocyte membrane protein AA101-186; PDZ domain 1 of 1) (UniProt P08515 1-218 = GST); experiment: A/G assays
[4] = target: GST-AF6 PDZ domain fusion protein (af-6 protein AA985-1077; PDZ domain 1 of 1) (UniProt P08515 1-218 = GST); experiment: A/G assays
[5] = target: T2, GST-41.8 kD PDZ domain fusion protein (hypothetical 41.8 kD protein AA4-85; PDZ domain 1 of 1) (UniProt P08515 1-218 = GST); experiment: A/G assays
T2 construct: also called hypoth

[6] = target: T3, GST-CBP PDZ domain fusion protein (Cytohesin binding protein HE AA85-175; PDZ domain 1 of 1) (UniProt P08515 1-218 = GST); experiment: A/G assays
T3 construct: also called Prot

[7] = target: T4, GST-KIAA0559 PDZ domain fusion protein (KIAA0559 AA766-870; PDZ1 of 1) (UniProt P08515 1-218 = GST); experiment: A/G assays
T4 construct: also called K559

[8] = target: T5, GST-TAX40 PDZ domain fusion protein (human tax interaction protein 40 AA35-137; PDZ domain 1 of 1) (human, UniProt P08515 1-218 = GST); experiment: A/G assays
T5 construct: also called TX 40

[9] = target: GST-LIM PDZ domain fusion protein (Human LIM protein AA29-112; PDZ domain 1 of 1) (human, UniProt P08515 1-218 = GST); experiment: A/G assays
[10] = target: T6, GST-MPP2 PDZ domain fusion protein (maguk p55 subfamily member 2 (DLG2) AA185-273; PDZ domain 1 of 1) (UniProt P08515 1-218 = GST); experiment: A/G assays
T6 construct: also called MMP2

[11] = target: GST-MINT3 PDZ domain fusion protein (human MINT3 AA11-52; PDZ domain 1 of 1) (human, UniProt P08515 1-218 = GST); experiment: A/G assays
[12] = target: T7, GST-TAX43 PDZ domain fusion protein (human tax interaction protein 43 AA15-85; PDZ domain 1 of 1) (human, UniProt P08515 1-218 = GST); experiment: A/G assays
T7 construct: also called TX 43

[13] = target: T8, GST-KIAA0316 PDZ domain fusion protein (KIAA0316 AA197-284; PDZ domain 1 of 1) (UniProt P08515 1-218 = GST); experiment: A/G assays
T8 construct: also called K316

[14] = target: T9, GST-KIAA0303 PDZ domain fusion protein (KIAA0303 AA652-742; PDZ domain 1 of 1) (UniProt P08515 1-218 = GST); experiment: A/G assays
T9 construct: also called K303

[15] = target: GST-PTN-4 PDZ domain fusion protein (protein-tyrosine phosphatase meg1 AA774-862; PDZ domain 1 of 1) (UniProt P08515 1-218 = GST); experiment: A/G assays
[16] = target: T10, GST-TAX2 PDZ domain fusion protein (human tax interaction protein 2 AA54-140; PDZ domain 1 of 1) (human, UniProt P08515 1-218 = GST); experiment: A/G assays
T10 construct: also called TX 2

[17] = target: T11, GST-TAX33 PDZ domain fusion protein (tax interaction protein 33 AA73-162; PDZ domain 1 of 1) (UniProt P08515 1-218 = GST); experiment: A/G assays
T11 construct: also called TX33

[18] = target: T12, GST-CASK PDZ domain fusion protein (CASK AA495-584; PDZ domain 1 of 1) (mouse, UniProt P08515 1-218 = GST); experiment: A/G assays
T12 construct: also called mCASK

[19] = target: GST-DVL1 PDZ domain fusion protein (human dishevelled segment polarity protein homolog AA248-340); PDZ domain … (human, UniProt P08515 1-218 = GST); experiment: A/G assays
[20] = target: GST-LIMK2 PDZ domain fusion protein (human LIM domain kinase 2 AA185-275; PDZ domain 1 of 1) (human, UniProt P08515 1-218 = GST); experiment: A/G assays
[21] = target: GST-TIAM1 PDZ domain fusion protein (T-lymphoma invasion and metastasis inducing protein 1 AA1001-1088); PDZ 1 … (UniProt P08515 1-218 = GST); experiment: A/G assays
[22] = target: GST-prIL16 PDZ domain fusion protein (putative interleukin 16 precursor AA170-383; PDZ domains 1-2 of 2) (UniProt P08515 1-218 = GST); experiment: A/G assays
[23] = target: T13, GST-RGS12 PDZ domain fusion protein (human regulator of G-protein signalling 12 AA35-103; PDZ domain 1 of 1) (human, UniProt P08515 1-218 = GST); experiment: A/G assays
T13 construct: also called RSG12

[24] = target: T14, GST-PSD95 PDZ domain fusion protein (human post-synaptic density protein 95 AA387-724; PDZ domains 1-3 of 3) (human, UniProt P08515 1-218 = GST); experiment: A assay
[25] = target: T15, GST-NeDLG PDZ domain fusion protein (presynaptic protein sao102, neuroendocrine-dlg; PDZ domains 1-2 of 3) (UniProt P08515 1-218 = GST); experiment: A assay
T15 construct: also called NeDLG1

[26] = target: T14, GST-PSD95 PDZ domain fusion protein …; experiment: A/G assays
[27] = target: T15, GST-NeDLG PDZ domain fusion protein …; experiment: A/G assays
[28] = target: T6, GST-MPP2 PDZ domain fusion protein …; experiment: G assay

Chain of GST-AF6 PDZ domain fusion protein (af-6 protein AA985-1077; PDZ domain 1 of 1) (P08515 1-218, tags or fused parts left off): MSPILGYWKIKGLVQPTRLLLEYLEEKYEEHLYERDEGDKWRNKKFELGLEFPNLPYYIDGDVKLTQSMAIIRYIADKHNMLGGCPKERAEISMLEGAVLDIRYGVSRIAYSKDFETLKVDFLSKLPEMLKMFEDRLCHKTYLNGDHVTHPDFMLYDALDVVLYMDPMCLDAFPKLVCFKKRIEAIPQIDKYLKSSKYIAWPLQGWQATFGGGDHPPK
T15 sequence (P08515 1-218, tags or fused parts left off): as above
T11 sequence (P08515 1-218, tags or fused parts left off): as above
T12 sequence (P08515 1-218, tags or fused parts left off): as above
Chain of GST-prIL16 PDZ domain fusion protein (putative interleukin 16 precursor AA170-383; PDZ domains 1-2 of 2) (P08515 1-218, tags or fused parts left off): as above
Chain of GST-NOS1 PDZ domain fusion protein (human neuronal nitric oxide synthase; PDZ domain 1 of 1) (P08515 1-218, tags or fused parts left off): as above
Chain of GST-MINT3 PDZ domain fusion protein (human MINT3 AA11-52; PDZ domain 1 of 1) (P08515 1-218, tags or fused parts left off): as above
Chain of GST-LIMK2 PDZ domain fusion protein (human LIM domain kinase 2 AA185-275; PDZ domain 1 of 1) (P08515 1-218, tags or fused parts left off): as above
Chain of GST-PTN-4 PDZ domain fusion protein (protein-tyrosine phosphatase meg1 AA774-862; PDZ domain 1 of 1) (P08515 1-218, tags or fused parts left off): as above
T4 sequence (P08515 1-218, tags or fused parts left off): as above
T10 sequence (P08515 1-218, tags or fused parts left off): as above
Chain of GST-DVL1 PDZ domain fusion protein (human dishevelled segment polarity protein homolog AA248-340); PDZ domain … (P08515 1-218, tags or fused parts left off): as above
T2 sequence (P08515 1-218, tags or fused parts left off): as above
T1 sequence (P08515 1-218, tags or fused parts left off): as above
T9 sequence (P08515 1-218, tags or fused parts left off): as above
T5 sequence (P08515 1-218, tags or fused parts left off): as above
Chain of GST-TIAM1 PDZ domain fusion protein (T-lymphoma invasion and metastasis inducing protein 1 AA1001-1088); PDZ 1 … (P08515 1-218, tags or fused parts left off): as above
T3 sequence (P08515 1-218, tags or fused parts left off): as above
T8 sequence (P08515 1-218, tags or fused parts left off): as above
T14 sequence (P08515 1-218, tags or fused parts left off): as above
Chain of GST-MPP1 PDZ domain fusion protein (55 Kd erythrocyte membrane protein AA101-186; PDZ domain 1 of 1) (P08515 1-218, tags or fused parts left off): as above

Row | Binder | binding result [1] | binding result [2] | binding result [3] | binding result [4] | binding result [5] | binding result [6] | binding result [7] | binding result [8] | binding result [9] | binding result [11] | binding result [12] | binding result [13] | binding result [14] | binding result [15] | binding result [16] | binding result [17] | binding result [18] | binding result [19] | binding result [20] | binding result [21] | also measured
1 | Biotin-VTSPNKHLGLVTPHKTELV [CD83 C-terminal PL peptide AA47L, biotinylated] | no binding | no binding | no binding | no binding | no binding | no binding | no binding | no binding | no binding | no binding | no binding | no binding | no binding | no binding | no binding | no binding | no binding | no binding | no binding | no binding | binding result [10]: no binding; binding result [22]: no binding; binding result [23]: no binding; binding result [24]: binds; binding result [25]: binds
2 | Biotin-ERLKLEPHEGLLLRFPYAA [CD98 (2F4) C-terminal PL peptide AA15L, biotinylated] | no binding | no binding | no binding | no binding | no binding | no binding | no binding | no binding | no binding | no binding | no binding | no binding | no binding | no binding | no binding | no binding | no binding | no binding | no binding | no binding | binding result [26]: no binding; binding result [27]: no binding; binding result [22]: no binding; binding result [23]: no binding; binding result [28]: binds
3 | Biotin-ARHRVTSYTSSSVNVSSNL [CDW128A (IL8RA) C-terminal PL peptide AA29.1L, biotinylated] | no binding | no binding | no binding | no binding | no binding | no binding | no binding | no binding | no binding | no binding | no binding | no binding | no binding | no binding | no binding | no binding | no binding | no binding | no binding | no binding | binding result [10]: no binding; binding result [26]: no binding; binding result [22]: no binding; binding result [23]: no binding; binding result [25]: binds

From patent publication US20090149339A1 (published 2009)
